Data: PMC7954794, “Protein context shapes the specificity of SH3 domain-mediated interactions in vivo” (Nature Communications, 2021)

System: growth of yeast strains under 51 stress conditions
Experiment: Growth assays in 51 stress conditions (Fig. 1E-F, S2D, S5B)
Type: cell-based, Saccharomyces cerevisiae
Parameters: key to Growth (Fig. S2D) / growth of ABP1 SH3-swapped strains in stress condition: log2 colony size, average of median per strain (growth score)
Details: for growth of ABP1 SH3-swapped strains in stress condition: FigS2D; for Growth (Fig. S2D): ABP1 SH3-swapped strains
Outline: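 Colony sizes at 74 h on 51 stress media (37 °C) were log2 transformed, corrected for plate effects, and averaged across two plates as per-plate medians (growth score). Strains arrayed in 12 replicates with WT border, grown first on YPD for two days at 30 °C.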

B1: YSC84 (protein, UniProt P32793 1-468, looked up)
Protein YSC84: MGINNPIPRSLKSETKKAAKVLRSFVKPNQVFGADQVIPPYVLKRAKGLAIITVLKAGFLFSGRAGSGVIVARLKDGTWSAPSAIAMAGAGAGGMVGVELTDFVFILNSEEAVRSFSEFGTITLGGNVSVSAGPLGRSAEAAASASTGGVSAVFAYSKSKGLFAGVSVEGSAILERREANRKFYGDNCTSKMILSGRVKVPPAADPLLRILESRAFNFTRHDHDDNASGDDFYDDGQYSDNTSHYYDDIPDSFDSTDESSTRPNTRSSRRRGMSLGSRSRYDDDYDDDGYGRGRGYGDFDSEDEDYDYGRSPNRNSSRNRGPQIDRGTKPRANTRWEDDLYDRDTEYSRPNHSGRDYDNTRGNRRGYGRERGYSLGHGPTHPSNMSNVDDLSHKMSKTGLGNESTATNSATPTAVALYNFAGEQPGDLAFKKGDVITILKKSDSQNDWWTGRTNGKEGIFPANYVRVS
For B1, the “growth of ABP1 SH3-swapped strains in stress condition” value (“growth of ABP1 SH3-swapped strains” below) (Bathophenanthroline.0.1uM) was 10.863, the “growth of ABP1 SH3-swapped strains” value (Bathophenanthroline.10uM) was 10.6791 and the “growth of ABP1 SH3-swapped strains” value (Bathophenanthroline.1uM) was 10.8306. For the same molecule, the “growth of ABP1 SH3-swapped strains” value (CaCl2.100mM) was 10.8211, the “growth of ABP1 SH3-swapped strains” value (CaCl2.250mM) was 10.7492 and the “growth of ABP1 SH3-swapped strains” value (CaCl2.500mM) was 10.2924. For the same molecule, the “growth of ABP1 SH3-swapped strains” value (Caffein.10mM) was 10.0875, the “growth of ABP1 SH3-swapped strains” value (Caffein.2mM) was 11.0461 and the “growth of ABP1 SH3-swapped strains” value (CdCl2.100uM) was 9.612. For the same molecule, the “growth of ABP1 SH3-swapped strains” value (CdCl2.10uM) was 10.8942, the “growth of ABP1 SH3-swapped strains” value (CdCl2.50uM) was 9.965 and the “growth of ABP1 SH3-swapped strains” value (CuSO4.1mM) was 10.4219. For the same molecule, the “growth of ABP1 SH3-swapped strains” value (CuSO4.5mM) was 8.049, the “growth of ABP1 SH3-swapped strains” value (Cycloheximide.0.05.uM) was 11.0738 and the “growth of ABP1 SH3-swapped strains” value (Cycloheximide.0.2.uM) was 10.6488. The “growth of ABP1 SH3-swapped strains” value (Cycloheximide.0.5.uM) was 10.1375, the “growth of ABP1 SH3-swapped strains” value (DMSO.2.) was 11.0761 and the “growth of ABP1 SH3-swapped strains” value (DMSO.6.) was 9.8918. The “growth of ABP1 SH3-swapped strains” value (DMSO.8.) was 9.375, the “growth of ABP1 SH3-swapped strains” value (Ethanol.2.) was 10.7982 and the “growth of ABP1 SH3-swapped strains” value (Ethanol.6.) was 10.2832. The “growth of ABP1 SH3-swapped strains” value (Ethanol.8.) was 10.0513, the “growth of ABP1 SH3-swapped strains” value (Galactose.2.) was 10.753 and the “growth of ABP1 SH3-swapped strains” value (Glycerol.2.) was 9.905. For the same molecule, the “growth of ABP1 SH3-swapped strains” value (Hydroxyurea.25mM) was 10.7776, the “growth of ABP1 SH3-swapped strains” value (Hygromycin.190uM) was 10.9721 and the “growth of ABP1 SH3-swapped strains” value (Hygromycin.19uM) was 10.9865. For the same molecule, the “growth of ABP1 SH3-swapped strains” value (Hygromycin.95uM) was 11.0398, the “growth of ABP1 SH3-swapped strains” value (MMS.0.004.) was 10.997 and the “growth of ABP1 SH3-swapped strains” value (MMS.0.02.) was 10.758. The “growth of ABP1 SH3-swapped strains” value (MMS.0.04.) was 10.0132, the “growth of ABP1 SH3-swapped strains” value (Menadione.100uM) was 10.5944 and the “growth of ABP1 SH3-swapped strains” value (Menadione.200uM) was 10.563. For the same molecule, the “growth of ABP1 SH3-swapped strains” value (Menadione.50uM) was 10.853, the “growth of ABP1 SH3-swapped strains” value (NaCl.0.25M) was 10.8517 and the “growth of ABP1 SH3-swapped strains” value (NaCl.1M) was 9.6266. For the same molecule, the “growth of ABP1 SH3-swapped strains” value (Nitroquinoline.10uM) was 10.6185, the “growth of ABP1 SH3-swapped strains” value (Nitroquinoline.50uM) was 10.6333 and the “growth of ABP1 SH3-swapped strains” value (Nystatin.0.01uM) was 10.9762. The “growth of ABP1 SH3-swapped strains” value (Nystatin.0.1uM) was 10.9958, the “growth of ABP1 SH3-swapped strains” value (Raffinose.2.) was 11.0249 and the “growth of ABP1 SH3-swapped strains” value (Rapamycin.10nM) was 9.871. For the same molecule, the “growth of ABP1 SH3-swapped strains” value (Rapamycin.50nM) was 9.5402, the “growth of ABP1 SH3-swapped strains” value (SC.pH3) was 10.4227 and the “growth of ABP1 SH3-swapped strains” value (SC.pH6) was 10.9991. For the same molecule, the “growth of ABP1 SH3-swapped strains” value (SDS.0.01.) was 11.0315, the “growth of ABP1 SH3-swapped strains” value (SDS.0.02.) was 11.0179 and the “growth of ABP1 SH3-swapped strains” value (SDS.0.05.) was 10.9653. For the same molecule, the “growth of ABP1 SH3-swapped strains” value (Sorbitol.10mM) was 10.9675, the “growth of ABP1 SH3-swapped strains” value (Sorbitol.1mM) was 11.0498 and the “growth of ABP1 SH3-swapped strains” value (Sorbitol.5mM) was 10.8766.

B2: BOI1 (protein, UniProt P38041 1-980, looked up)
BEM1-interacting protein 1: MSLEGNTLGKGAKSFPLYIAVNQYSKRMEDELNMKPGDKIKVITDDGEYNDGWYYGRNLRTKEEGLYPAVFTKRIAIEKPENLHKSPTQESGNSGVKYGNLNDSASNIGKVSSHQQENRYTSLKSTMSDIDKALEELRSGSVEQEVSKSPTRVPEVSTPQLQDEQTLIQEKTRNEENTTHDSLFSSTADLNLSSESLKNISKSNISTKSLEPSSESVRQLDLKMAKSWSPEEVTDYFSLVGFDQSTCNKFKEHQVSGKILLELELEHLKELEINSFGIRFQIFKEIRNIKSAIDSSSNKLDADYSTFAFENQAAQLMPAATVNRDEIQQQISSKCNKLSSESSDRKSSSVTTELQRPSSVVVNPNFKLHDPAEQILDMTEVPNLFADKDIFESPGRAPKPPSYPSPVQPPQSPSFNNRYTNNNARFPPQTTYPPKNKNPTVYSNGLIPNSSTSSDNSTGKFKFPAMNGHDSNSRKTTLTSATIPSINTVNTDESLPAISNISSNATSHHPNRNSVVYNNHKRTESGSSFVDLFNRISMLSPVKSSFDEEETKQPSKASRAVFDSARRKSSYGHSRDASLSEMKKHRRNSSILSFFSSKSQSNPTSPTKQTFTIDPAKMTSHSRSQSNSYSHARSQSYSHSRKHSLVTSPLKTSLSPINSKSNIALAHSETPTSSNNKEAVSQPSEGKHKHKHKHKSKHKHKNSSSKDGSSEEKSKKKLFSSTKESFVGSKEFKRSPSELTQKSTKSILPRSNAKKQQTSAFTEGIRSITAKESMQTADCSGWMSKKGTGAMGTWKQRFFTLHGTRLSYFTNTNDEKERGLIDITAHRVLPASDDDRLISLYAASLGKGKYCFKLVPPQPGSKKGLTFTEPRVHYFAVENKSEMKAWLSAIIKATIDIDTSVPVISSYATPTIPLSKAQTLLEEARLQTQLRDAEEEEGRDQFGWDDTQNKRNSNYPIEQDQFETSDYLESSAFEYPGGRL
In the case of B2, the “Growth (Fig. S2D)” value (Bathophenanthroline.0.1uM) is reported as 10.8558, the “Growth (Fig. S2D)” value (Bathophenanthroline.10uM) is reported as 10.6819 and the “Growth (Fig. S2D)” value (Bathophenanthroline.1uM) is reported as 10.8124. The “Growth (Fig. S2D)” value (CaCl2.100mM) was 10.8898, the “Growth (Fig. S2D)” value (CaCl2.250mM) was 10.7569 and the “Growth (Fig. S2D)” value (CaCl2.500mM) was 10.2369. The “Growth (Fig. S2D)” value (Caffein.10mM) was 9.961, the “Growth (Fig. S2D)” value (Caffein.2mM) was 10.9473 and the “Growth (Fig. S2D)” value (CdCl2.100uM) was 9.222. For the same molecule, the “Growth (Fig. S2D)” value (CdCl2.10uM) was 10.8438, the “Growth (Fig. S2D)” value (CdCl2.50uM) was 9.731 and the “Growth (Fig. S2D)” value (CuSO4.1mM) was 10.511. For the same molecule, the “Growth (Fig. S2D)” value (CuSO4.5mM) was 7.921, the “Growth (Fig. S2D)” value (Cycloheximide.0.05.uM) was 11.026 and the “Growth (Fig. S2D)” value (Cycloheximide.0.2.uM) was 10.6068. The “Growth (Fig. S2D)” value (Cycloheximide.0.5.uM) was 10.1487, the “Growth (Fig. S2D)” value (DMSO.2.) was 10.9996 and the “Growth (Fig. S2D)” value (DMSO.6.) was 9.7528. The “Growth (Fig. S2D)” value (DMSO.8.) was 9.017, the “Growth (Fig. S2D)” value (Ethanol.2.) was 10.7382 and the “Growth (Fig. S2D)” value (Ethanol.6.) was 10.327. For the same molecule, the “Growth (Fig. S2D)” value (Ethanol.8.) was 10.13, the “Growth (Fig. S2D)” value (Galactose.2.) was 10.7623 and the “Growth (Fig. S2D)” value (Glycerol.2.) was 9.776. For the same molecule, the “Growth (Fig. S2D)” value (Hydroxyurea.25mM) was 10.8154, the “Growth (Fig. S2D)” value (Hygromycin.190uM) was 11.0114 and the “Growth (Fig. S2D)” value (Hygromycin.19uM) was 10.9627. For the same molecule, the “Growth (Fig. S2D)” value (Hygromycin.95uM) was 10.9456, the “Growth (Fig. S2D)” value (MMS.0.004.) was 11.0063 and the “Growth (Fig. S2D)” value (MMS.0.02.) was 10.7015. For the same molecule, the “Growth (Fig. S2D)” value (MMS.0.04.) was 10.0905, the “Growth (Fig. S2D)” value (Menadione.100uM) was 10.612 and the “Growth (Fig. S2D)” value (Menadione.200uM) was 10.4246. The “Growth (Fig. S2D)” value (Menadione.50uM) was 10.8341, the “Growth (Fig. S2D)” value (NaCl.0.25M) was 10.7827 and the “Growth (Fig. S2D)” value (NaCl.1M) was 9.573. The “Growth (Fig. S2D)” value (Nitroquinoline.10uM) was 10.6267, the “Growth (Fig. S2D)” value (Nitroquinoline.50uM) was 10.6407 and the “Growth (Fig. S2D)” value (Nystatin.0.01uM) was 11.0406. For the same molecule, the “Growth (Fig. S2D)” value (Nystatin.0.1uM) was 11.0134, the “Growth (Fig. S2D)” value (Raffinose.2.) was 11.0354 and the “Growth (Fig. S2D)” value (Rapamycin.10nM) was 9.9199. For the same molecule, the “Growth (Fig. S2D)” value (Rapamycin.50nM) was 9.475, the “Growth (Fig. S2D)” value (SC.pH3) was 10.3897 and the “Growth (Fig. S2D)” value (SC.pH6) was 10.9841. For the same molecule, the “Growth (Fig. S2D)” value (SDS.0.01.) was 10.9238, the “Growth (Fig. S2D)” value (SDS.0.02.) was 11.0048 and the “Growth (Fig. S2D)” value (SDS.0.05.) was 10.8898. The “Growth (Fig. S2D)” value (Sorbitol.10mM) was 10.9854, the “Growth (Fig. S2D)” value (Sorbitol.1mM) was 11.0069 and the “Growth (Fig. S2D)” value (Sorbitol.5mM) was 10.9417.
